Data taken from the DeepSol protein solubility set.

Assay: soluble on expression in E. coli; label from the status in PepcDB or PDB records

Soluble on expression in E. coli, not soluble:
AHHHHHHGSKERLEKLVKFMDENSIDRVFIAKPVNVYYFSGTSPLGGGYIIVDGDEATLYVPELEYEMAKEESKLPVVKFKKFDEIYEILKNTETLGIEGTLSYSMVENFKEKSNVKEFKKIDDVIKDLRIIKTKEEIEIIEKACEIADKAVMAAIEEITEGKREREVAAKVEYLMKMNGAEKPAFDTIIASGHRSALPHGVASDKRIERGDLVVIDLGALYNHYNSDITRTIVVGSPNEKQREIYEIVLEAQKRAVEAAKPGMTAKELDSIAREIIKEYGYGDYFIHSLGHGVGLEIHEWPRISQYDETVLKEGMVITIEPGIYIPKLGGVRIEDTVLITENGAKRLTKTERELL
MVLYVPTYREDKADNRAIDKAYFEKCLPGYTLINKLHPSIEDSDIDDVSSIDTSTLMLMSDIIISDYSSLPIEASLLDIPTIFYVYDEGTYDKVRGLNQFYKAIPDSYKVYTEEDLIMTIQEKEHLLSPLFKDWHKYNTDKSLHQLTEYIDKMVTK
MPGIDIVIVNWNSGNQLRECLRSIGNLVGEAEPLTVTVVDNASCDGSADGLPEPSCPLRVIRNRANLGFGRASNLGAREGSADYLLFLNPDTRLHPGALSIPLGFMESETGRHVGICGVQCLDETGGVARCCARFPTAWRLVGQALGLDRLFPRWIPPHFLGEWPHDSDRDVDQVIGAFFFVRRAVFEQLGGFDERFFVYYEDLDFALRARRAGWGSRYLAGARIFHRGGGVSRQISARRLHYLTHSKLRYARKHFAGIDAFLVSAAVLLLEPLARSAYALGRGRPGEFADTWKAFGGLYASLCRPGENGRLEHHHHHH
MSAESGVAALLRLMAWLSPAFPVGGFSYSGGLEKAVEDGRVCDAAGLGGWVETLLRHGSLWNDAVFLAHAWRSSQDTTALSETANLGRALAGSAERYRETVLLGDAFIAAASAWPHAVLELLPKEAPYPVAIGAVAAGHGVPLRETLAAFLHAGVSQIVSAGIRLGVAGQKDGVAILAASEAVIEEIAARAALSTLDDLGSATVIADTAAMRHETQGTRLFRSLEHHHHHH
MGSDKIHHHHHHMKMNWTGAAHQLNKQGKAYVIATIVGVTGSTPRNSGTKMVITHDDIFDTIGGGHLEHKVIKHAHQLLMAGDDCQQLEHFQLGAQLGQCCGGNASVLFESFSASGVNIMLFGAGHVGKALMPILAGLPCSITWVDSRADQFPDDAGNYHNVTTLVSENPAEEVALMPTNSYYIVMTHNHQLDFEISHNTLKRADFAYLGLIASDTKWRRFQQRFQHRDIAKSLVEKMNCPIGLPQVQGKLPMEVAVSVAGEIIQLYQAELASQALANPSANKQKDAKPQSTKQGIAWQELKSLMTEEVS
MFKRVFNLRFISNFSRRPTSSPKLPKLIAITGGTSLGIAFFGKTEENKNLDSGNGQLIDGKPKNFDLIVRNSDELYDNYLIDNCYNILKKFENSNCSELLWRLARVVCEKGKLSKDQNQRKELILEAYGIVKKALDNEPKNGCFGAHKWYAILLDYVGEIEGNKSRIEKSFQVRKHLEKALSIFENDPTTWHILGVWHFSFANMGYATRMVAKAIFATPPASTYQEALHYFLKAEQISPGFYSTNTYYIGEVYEQLGQKAEALDAFKQSFKMPVVTSDDAVIHKKAYEKLKKYGVKDTEVV
MAKDLLLEIGLEEMPAHVVTPSRIQLEEKVIKFLDEHHLDYETVQSFATPRRLAVKVTAIPEKQADVEEEVKGPAKKIALDAEGNWSKAAQGFVRGQGVTTEDIVFKELNGVEYVYVTKFTKGQSAKEVLTKLNDVITSLTFPVTMHWANYDFEYIRPIHWIVALLDDEVIPFKVLDVTTGQTSRGHRFLGDDVTFQHANEYEAKLKEQFVVVQPNERKQMIVDQANALAAEKNWQLALDEELLEEVTNLVEYPTAFVGSFDEKYLSVPDEVLVTSMKEHQRYFDVRNDQGLLMPHFIAVRNGDNVHLENVIKGNEKVLIARLEDAEFFYNEDKKLTIEACVEKLKNVTFHEKIGSIYEKMQRVALIAQIIGRKVGLSEDELEDLKRASEIYKFDLVTNMVGEFPELQGIMGEKYALLQGEKPAVATAIREHYLPTSSEGELPETAIGAVLALADKLDSVFSFFSVGMIPTGSNDPYALRRQTYGVIRIIEDKGWTFPLVQLQTEVDEAVNQDVEKYGVLLNEGQAEVVEFVKARLRQLLMTKNVRHDIIDAVVSAEQADLSKLFASANILKSRFEDQDFKPSMEALTRVINLAKKGQELLGDTEEGIDPSLFENKAEKELYQAVNDLSEAFATRTIAENYEALVNLRPLIDAYFNETMVMVEDEKVKQNRLKQLMQIAKMALSIASLDLLIVK
MDKNETRATIIRIGTDLISRQGFNATGIDAVLKEAGVPKGSFYYYFRSKEEFGLAVIDHFAERYDQRLDTFLNDEEVTPLNRIRNYLESALARLEQNQCSKGCLIGNLGQELADQHERFRGRLDEIFRSWKDRFAACLREAQRGGELAPELDAGVAAGFILSGLEGAILRTKVMKSPQPLRDFIEILFASVLRRQA
MTKEEMRNAILDIFQSNPQSVMNYKQVSHLMGVEAAPQKLMVNSLMEDMAVDDILHEIERGRYRYNALGLIVIGTFERRFNGRNSFIPEGGGTPIFIAERNSAHAMDGDKVKVQLFAKRRGRAPEAAVIEIIEQKQATFVGKIQINRDFAFLVTEDRTLANDIFIPKDNLGNAKNGDKVIVRILEWPEQSKNPIGEVQAVLGPAGDNDAEMNAILAEFGLPYVYPQEVEEAADRLDGKITEEELARREDFRSILTFTIDPKDAKDFDDAISFRPLEDDCYEVGVHIADVSHYVTEGGIIDQEAYNRATSIYLVDRTIPMLPERLCNDLCSLRPDEEKYAYSCIFRMNDEAKVLDYRICHSVIKSDRRFAYEEAQAVIETGEGDCKEAILKLNELAQRLRKERFQNGAIAFERKEVRFEIDEKGRPLGVIVKESKEANKLIEEFMLLANRTVARHIGEETQGKRAKTFVYRIHDLPDPDKLETLSDFIRRFGYKLRTTGSNVEVSKSINSLLDNIQNKPEENLISTVAIRSMAKAIYSTDNIGHYGLAFDFYTHFTSPIRRYPDLMVHRLLTKYLSGGSSVDKNDYEEKCKHSSAMEQLAASAERASIKYKQVEFMSEHLGKVFDGVISGVTEWGLYVELKENMCEGLIPIRCLDDDYYEYDDKNFCLIGRRYRHRYSLGDAITVRVAQANLDRKQLDFEPVS
MGSDKIHHHHHHMRVYIGCGGYTDEDWTAPGLIYEGVKKDAFLETYAHHFDAVELNSSFYAIPGLKAFEGMVRKSGGWVRFAVKLNKVFTHVRAPTDTDFDRMLQSPEPLREAGMMGPYLAQFPYSFHRTAANRKYLALLTERFAGHELAVELRHASWDKPEVREGMGEFGIIWVSPDYPPVGGMPEPQVHVTGDVGYLRLHGRNRETWWEGQSAGERHDYLYNRAEMDEWAEKIAAVAGDLSELYVFFQNTTGGHALKNIPMLREALNARGVPVQTPEAHDGGRLL
MSYQVTTLQARKDMARARLGQIPLPRITHIAFGTGGHLPGDVLTPVKPSETATSLEQEVARFPIASAVLKNDTTVEYKVVIPKGALSGVVLTEQALIDQNGKVVAIKTFGAKKKEPEDEFTFTWEEDF
MNQLLKTLRDFGLSSYEASAYVALVSSGETTAREVSRKAGIPRTKVYEVLNRLVEKGFAEVQPGSPAIFRAIEPAKIAARMQRDFNERLGKMLKAFEELKMDEKSESKLVWISRGRWAVENRLREFLRENDKVMVFCITENFASVLSEVRGEHRVLLYQKFRVPENIREFRVLDLGRIKKAKDGFVARFAEIIEGTEAGKPEILIISEGSSILALSHGEEYLALSIHLPLIVALQKRMFDTLYESYC

Soluble on expression in E. coli, soluble:
MSGILALGAYVPERVMTNADFEAYLDTSDEWIVTRTGIKERRVAAEDEYTSDLAFKAVEDLLRRHPGALEGVDAVIVATNTPDALFPDTAALVQARFGLKAFAYDLLAGCPGWIYALAQAHALVEAGLAQKVLAVGAEALSKIIDWNDRATAVLFGDGGGAAVVGKVREGYGFRSFVLGADGTGAKELYHACVAPRLPDGTSMKNRLYMNGREVFKFAVRVMNTATLEAIEKAGLTPEDIRLFVPHQANLRIIDAARERLGLPWERVAVNVDRYGNTSTASIPLALKEALDAGRIREGDHVLLVSFGAGLTWAAAVLTWGGA
RLSTWARKQTAMSQTQDYECRSHNVDLPESRIPGSNTRLEWVEIIEPRTRERMYANLVTGECVWDPPAGVRIKRTSENQWWELFDPNTSRFYYYNASTQRTVWHRPQGCDIIPLAKLQTLKQNTESPRASAESSPGRGSSVSREGSTSSSLEPEPDTEKAQELPARAGRPAAFGTVKEDSGSSSPPGVFLEKDYEIYRDYSADGQLLHYRTSSLRWNSGAKERMLIKVADREPSFLAAQGNGYAPDGPPGVRSRRPSGSQHSPSLQTFAPEADGTIFFPERRPSPFLKRAELPGSSSPLLAQPRKPSGDSQPSSPRYGYEPPLYEEPPVEYQAPIYDEPPMDVQFEAGGGYQAGSPQRSPGRKPRPFLQPNKQGPPSPCQQLVLTKQKCPERFLSLEYSPAGKEYVRQLVYVEQAGSSPKLRAGPRHKYAPNPGGGSYSLQPSPCLLRDQRLGVKSGDYSTMEGPELRHSQPPTPLPQAQEDAMSWSSQQDTLSSTGYSPGTRKRKSRKPSLCQATSATPTEGPGDLLVEQPLAEEQPPCGTSLAPVKRAEGEAEGARGAAEPFLAQARLAWEAQQAHFHMKQRSSWDSQQDGSGYESDGALPLPMPGPVVRAFSEDEALAQQENRHWRRGTFEKLGFPQILLEKSVSVQTNLASPEPYLHPSQSEDLAACAQFESSRQSRSGVPSSSCVFPTFTLRKPSSETDIENWASKHFNKHTQGLFRRKVSIANMLAWSSESIKKPMIVTSDRHVKKEACELFKLIQMYMGDRRAKADPLHVALEVATKGWSVQGLRDELYIQLCRQTTENFRLESLARGWELMAICLAFFPPTPKFHSYLEGYIYRHMDPVNDTKGVAISTYAKYCYHKLQKAALTGAKKGLKKPNVEEIRHAKNAVFSPSMFGSALQEVMGMQRERYPERQLPWVQTRLSEEVLALNGDQTEGIFRVPGDIDEVNALKLQVDQWKVPTGLEDPHVPASLLKLWYRELEEPLIPHEFYEQCIAHYDSPEAAVAVVHALPRINRMVLCYLIRFLQVFVQPANVAVTKMDVSNLAMVMAPNCLRCQSDDPRVIFENTRKEMSFLRVLIQHLDTSFMEGVL
MITMKDIIKEGHPTLRKVAEPVPLPPSEEDKRILQSLLDYVKMSQDPELAAKYGLRPGIGLAAPQINVSKRMIAVHVTDENGTLYSYALFNPKIVSHSVQQCYLTTGEGCLSVDRDVPGYVLRYARITVTGTTLDGEEVTLRLKGLPAIVFQHEIDHLNGIMFYDRINPADPFQVPDGAIPIGR
MVSKNKKLNLKDKYQYLTRDMAWEPTYQDKKDIFPEEDFEGIKITDWSQWEDPFRLTMDAYWKYQAEKEKKLYAIFDAFAQNNGHQNISDARYVNALKLFISGISPLEHAAFQGYSKVGRQFSGAGARVACQMQAIDELRHSQTQQHAMSHYNKHFNGLHDGPHMHDRVWYLSVPKSFFDDARSAGPFEFLTAISFSFEYVLTNLLFVPFMSGAAYNGDMATVTFGFSAQSDEARHMTLGLEVIKFILEQHEDNVPIVQRWIDKWFWRGFRLLSLVSMMMDYMLPNKVMSWSEAWEVYYEQNGGALFKDLERYGIRPPKYQDVANDAKHHLSHQLWTTFYQYCQATNFHTWIPEKEEMDWMSEKYPDTFDKYYRPRYEYLAKEAAAGRRFYNNTLPQLCQVCQIPTIFTEKDAPTMLSHRQIEHEGERYHFCSDGCCDIFKHEPEKYIQAWLPVHQIYQGNCEGGDLETVVQKYYHINIGEDNFDYVGSPDQKHWLSIKGRKPADKNQDDA
MLLEERLSQISQIIDKEGSATIDFLAQKLEVSKDTIRRDLIKLESRKKLHRVHGGAIPIGKEAEILNYEERSNISTSLKKKIASKIKNLIKDHSTLIFDSSTTVEVAIKQLDNFSISTITNSLTNAILLSKYEMATVQLLPGKLNKNQLFLYGAETVEKLSQYQVDFTILGVFALSNNGLFIHTEEEGLVKRKMIQQGKQVIAIADHTKLNKEGFFKICDLKEIDYLITDEKIEGELMNNLNDNNVKVVTINELEHHHHHH
